Experimental data taken from patent US6485937.

Legend:
[1] = target: HIV TAT trans-activating protein (wildtype TAT, His-tagged fusion)
[2] = target: carboxy terminal domain (CTD) of RNA polymerase II fused to GST (GST-CTD) [GST: P08515]

B1: FLAG-epitope tagged HIV tat interacting protein of 30 kDa (f-TIP30) (protein)
chain: DYKDDDDKMAETEALSKLREDFRMQNKSVFILGASGETGRVLLKEILEQGLFSKVTLIGRRKLTFDEEAYKNVNQEVVDFEKLDDYASAFQGHDVGFCCLGTTRGKAGAEGFVRVDRDYVLKSAELAKAGGCKHFNLLSSKGADKSSNFLYLQVKGEVEAKVEELKFDRYSVFRPGVLLCDRQESRPGEWLVRKFFGSLPDSWASGHSVPVVTVVRAMLNNVVRPRDKQMELLENKAIHDLGKAHGSLKP
stimulation of f-TIP30 kinase activity on GST-CTD substrate (in vitro kinase assay) [1]: stimulate the kinase activity of recombinant f-TIP30 on GST-CTD substrate in a dose dependant manner | in vitro kinase assay (phosphorylation of GST-CTD, [g-32P]ATP, autoradiography) [2]: it could phosphorylate the carboxy terminal domain (CTD) of RNA polymerase II fused to GST (GST-CTD) in an in vitro kinase assay
